Like-named read-outs stand apart in the source and are kept apart here.
Key:
[1] = biological target: AuraA, dimethylallyl tryptophan synthase (DMATS) family prenyltransferase (Penicillium solitum HDN11-131)
[2] = biological target: AuraA, dimethylallyl tryptophan synthase (DMATS) family prenyltransferase (Penicillium solitum HDN11-131); experiment: cryo-EM structure

“AuraA, dimethylallyl tryptophan synthase (DMATS) family prenyltransferase (enzyme)” was tested, and the stoichiometry N [1] was 4 and the stoichiometry N [2] was 4.

Source: paper PMC11696170
